Reference: the DeepSol protein solubility set

test: soluble on expression in E. coli; label from the status in PepcDB or PDB records

Sequence	soluble on expression in E. coli
MPTDEPSKRKSILPTIPTSLMLKKSNEALSDFERTFNDRVMDIFAENRRIDVEEFKKNAECFLNIIRSNKIDLNWGEGGESRYVTITRLMKILKTSPQSIKDLLPHNTVSNFVKITNYNLTIDITLLEELVRTVIHAEESYIKLLPFSENSTEISSYSLQDFVATHFIPIMIEEPENPVYYTAYAVGTIFFLLGARRRDCVYLKDLLASTLLLQLEECIHAENHCLSPPKIDVFTVAQFRTTLSEFRFLDSQRKGLLAPADLKFFRDGIFNEVFTKRIFEISITYEDGRIDFKAFVDFVTALKFRHTTASAKYHFEILDLKDDGLLDEEEIRSISSFQLQNLPDYVPEDNSVNPEVATAELRDMMRLNQNGITLEEFLANRMNSTFAGFLSNSDDYMKYERREQ	not soluble
MPTGKSESSDISEVVGNMEISKVEGLEACIGMSHEVSTTPAAELAAFRARKVALITGISGQDGSYLAELLLSKGYKVHGIIRRSSSFNTARIEHLYSNPITHHGDSSFSLHYGDMTDSSCLIKLISTIEPTEVYHLAAQSHVKVSFDLPEYTAEVDAVGTLRLLDAIHACRLTEKVRFYQASTSELYGKVQEIPQSEKTPFYPRSPYAVAKMYGYWIVVNYREAYNMFACNGILFNHESPRRGETFVTRKITRSVAKISLGQQESIELGNLSALRDWGHAREYVEAMWRILQHDSPDDFVIATGKQFSVREFCNLAFAEIGEVLQWEGEGVEEVGKNKDGVIRVKVSPKYYRPTEVETLLGNAEKAKKTLGWEAKVTVPELVKEMVASDIILMKSNPMA	not soluble
MPTLLIRLQGPLQSWGTRSRFDHRDTWPYPTKSGVVGLLAAALGRDRREDVSDLAALRMGVRVDRKGVLKVDYQTAQFVYRTEGYVAVSTPKEREWLSRYTKTPIRVDERNATVTSKRYFLSDAAFLVGLEGERALLEALHRALKNPRFPLYLGRKSYVPSPPPYLPDGLVEAPLAEALEGYPYLLGGKPPEDLLLALEAEEGRLVYDQPAGPFSERRFAARFVREEVLPKERVPEGPPAWEVARVAH	soluble
MPTPKAFALLGPTAGGKTALALKIAETLPVEIISLDSALVYRDMDIGTAKPSASERAFVPHHLIDIIPPTESYSAARFVEDCTRLVGEISSRGRFALIVGGTMMYFRALTQGLNDLPEADACLRADLDEQKQMYGLDFLYRTLQKVDPETACRLKPNDSQRIGRALEVYYLTGKPMSTHLGSLTSHTLPFDLHTAALIPENRARLHENIALRFHLMLEQGFIGEVENLRRRYPGLTAYSPAIRCVGYRQAWKYLDGKTDFPAFVEKGIAATRQLAKRQLTWLRKTPLDCVADPFSDCTSCTRLIEAAKRFFGALEHHHHHH	soluble
MPTQFIRNRSAFPQGTNNDIDDFQYQNDFSSSSHQLPSTASGYSEHSSHQNFQNHSPPPGKATTDPLAGALLGLSDVITKSLISHPCGVLRRQCQVHQFAGSLHLTPVTLIPVICNSVAKQGIQTFWKGAIGSSVLWGLTNVTEIVLGDLMGLPRTFVVNGSAEKYWKHIVLKGVTFVTMTPFYISSFIETVRSESGIGGEDNKILDVLVKGVDRMRYFLTSGRDPSRRFSIIHLAIPTAGFQVGHYMLQTALYHQFFRMAKRYVNRKSPAEKTTYHDFLPQMFAQTSSMVLTDLILYPFETIVHRMYIQGTRTLIDNMDTGLSAVSMTVKYSGYFDCVRQVLETEGFWALYAGVGAVLLEYSLHQGLQQLVRACFDRGSELLRKATQGHPVVQSSQITPPISAKSSFNGPISNSFPSAGAALLSPMSTPRKHSTPPKDPTEFPTFGETVSQIGSPYQMPDRPNVFGSPPNRTRATHDSTQSLPPLQLNIRPSSGDPFSG	not soluble
MPTSSTPPIVYETDLEPIYYQDCYCHKELVFCKNWKFGGEIFKYNSSGTNSSIRRVQFDCCVYKDQEIDEEMSEKVKTFKGTLDPRQVVQNNCFQHLSPLYSKFCEHYGHMIGFFWNSLKDTVMAYDIADGLFQETKDCGCCLFHKDVYLTNHIFFEKSHRDEYGQTIICMDINWHTKEHGKMSIFFNSQGFFGEYRWNRVAQCFKLMKQLDVKTTEYEVADRTDDEKNWSSFSYDAIHFLEQEYRKTKYISSTDCQKISEKIHLDEELIEKWFRARRATSKREANSNEDIFTSQYQQTKLTMKDGTEGYFLRKNHEYFKKIVVTVGFSDGSVKPCVWIEKISEYQIIDQETWRLKFENSRVMAIDAEAREQVHRQRKLNSNEKRKEEEAENEQEKLFKEMAELEIQNYRILPNSSDKRLEEHELKTQSSTLPKPCAHAQAQAHAQAQAHAQAHETNDNWPKLMTELFRALLQGQSLTQQHMQRLVHLRTQPDFNRRSYAGHELTAMEMEALKQLLNLLNGKEMPTGKKEEVEGSGLTISEAHGTVGSPMLIEKKEELEGSLEHQPTMANEEIDQNLKEETTTKPEYRKKLRMSKRKQNELLQKLWLKEKNTENTHAEKTNQEKKLTENAVQEQLEQMMKMIQEERRAADSKNLKLEQMVLEMKDKLDAQETRIKELEEVIKSDKNAKKGEQLTDPTEPQYTEAPNAEVGHKSNISSSIGNDVDLLEDDSGED	not soluble
MPTTQLHHHYVLCGWHVRSALTLPELPPWSATATPVDADVVIEEGEVPDRLDLHDPVESWLSVGRDGSVLLQVPQVVRIHVHAGRAMRVQRLNRHDESWRLFLLGSALGYLCLQRSLFPLHAACLRIGTQTVAFAGHSGAGKSTLAAALLKRGHGLLSDDLTVIRLDSAGAIMVLPAFPRLKLWRDTLESLQLPVTDAPPVRPGMEKFDLRPSAGFDAAPVRLDAVVVLGDASEPHLQRLSPQHALPLLHGYLARPQAAVRMGLHAATFAHAAAIARQVPVWRLRRPRRFDALDITVDLIEAHVGALEHHHHHH	not soluble
MPVDRILEAELAVEQKSDQGVEGPGGTGGSGSSPNDPVTNICQAADKQLFTLVEWAKRIPHFSSLPLDDQVILLRAGWNELLIASFSHRSIDVRDGILLATGLHVHRNSAHSAGVGAIFDRVLTELVSKMRDMRMDKTELGCLRAIILFNPDAKGLSNPSEVEVLREKVYASLETYCKQKYPEQQGRFAKLLLRLPALRSIGLKCLEHLFFFKLIGDTPIDTFL	soluble
MPVSLLKAHEAEMWEVHFHPSNPDHLFTCSEDGSLWHWDASTNAPEKSSLFHQGGRSSTFLSHSLSNQAGVHQSLVSSWLSTDPAKDRIEITSLLPSRTLSVNSLDVLGPCLVCGTDAEAIYVTRQLFS	not soluble
MPVVNIPIKILGQNQSHSRSNSSSSVDNDRNQPPQQPPQPQPQQQSQQQYQQAPNVNTNMHHSNGFSPNFPSRSPIPDFPSFSSGFPNDSEWSSNFPSFPNFPSGFSNGSSNFPDFPRFGRDGGLSPNPPMQGYRRSPTPTSTQSPTSTLRRNSQQNQAPPQYSQQQPQQAQQRQTTPPSTKASSRPPSRTREPKEPEVPERPAVIPLPYEKKEKPLEKKGSRDSGKGDENLEENIAKITIGKNNCELCPEQETDGDPSPLTSPITEGKPKRGKKLQRNQSVVDFNAKTIVTLDKIELQVEQLRKKAAELEMEKEQILRSLGEISVHNCMFKLEECDREEIEAITDRLTKRTKTVQVVVETPRNEEQKKALEDATLMIDEVGEMMHSNIEKAKLCLQTYMNACSYEETAGATCQNFLKIIIQCAADDQKRIKRRLENLMSQIENAERTKADLMDDQSE	not soluble
MPWLLPREIAPLHQKALDRYLGSLTERLSDPNVDRNALVREELARLLYGRPYEELLEANPLAAMGLDPEGITFEAEYYAATDLEKFRRVKPLLWFWKVLDLTPLGQSVHSGVAIRRALAPFIFKRVGKNPKFFQNVEFSVGYNLELGDDVVVHRYVFLDDIGGIKIGDRTSLSDYVNVYSHTHHVLASPDVTLKETIIGSGVRITYHATVLAGVRIGDDAMVGTGAVVTKDIPPHAIALGIPARPVRYKVRHDCPYCRKGEPHPSDLVPKLPDRKGNPDYPDFLPPGFGTREAGS	soluble
MPWQQQPIRYSADLEKPSPREQADIEKIMAKLLKNNERAYDKYKHGLRDAHAKSHAILRGELIVNEGLPPELAQGLFAEPRTYPVIARLSSTSGVRRSDKTRGVRGLGLKVLGVQGEKILPDDSSTNQDFVMVTHEDFLFADAHAYAGLGMITASLLARLSDQALWLGSGLLDLVSKAGIKLPDNLMVFVAPNRPILGLEFFSSAPFRHGDHVAKYRFAPASENVKALSGQLLPRNPAPEQHRDMIAEFFADQTAEFDFSAQLCTDPVAMPIEDAGKNWDKSISPYVSVAKIVFGPQNPYSALRRAYGDDVLAFNSWRGLAEHRPLGSINRLKKTVYESSADYRHRVNRIDRHEPVDISELPDLEHHHHHH	not soluble
MPYLLYHHFDPTFDHQNLKPGLAVGKGKVDHYNLGYVQNVVKGQVLAEFIPIDDTDDPVIDRNHIFEEPLLPVGPNCKVDPDSPLRVVADANGYVFYNDGLITVKRMLNVRRDVDFHTGNIFFVSDIAVHGDVRAGFEVQGNNILVKGIIEGATVRARGSLAVEGGARGSGGSGLLDAGDTLRVPFAESMELRAHGNILIEKFCLHSLVYAATNLVVKNRLQGGTVHCNGLVYVETHLGNPKGTPTATRINMGYDPFTMRKLDRLEQHIRELQDSLTHIAGIAGNLGSDSAPGKRLDNARKKLNRLIRQREALWAALTEDEARAALCRVVVPGTVYPGVEISIGKAFFEVEHEMNNVSFSLADGSIVVTSPAIIKKKALEHHHHHH	not soluble
MQANGVWSLQPLADMSAAEFRDWQVLLENRTGVVLNEQRRTFLQASLTARMRELGIGDYHSYYRQVTDGPRGAVEWATLLDRLTVQETRFFRHPPSFELLERYLGERLRREGMPRPWALWSVGCSSGEEPYSLAMCAAQVLRGQEREDFFGVTGTDISLHALQRARQANYPARKLEQLEAGLVERYCERQADGSFSVKTILTERVCCARLNVLDLAKAPWSGMDVIFCQNLLIYFRRWRRREILNRLAERLAPGGLLVIGVGEVVDWSHPELEPVADERVLAFTR	not soluble
MQCELCGKEVKNIIKTRVEGVEMNVCEACAKFGMSPKGYSRKPRAVFKNETKQKQAKRPRKDMFDNLKTLVEDYGSLVKEAREKKNMTLEELSRAVGIKESLIHKIERNEIEPEEKYVKILEKALGISFYEEGDLNYETSNEDSEFTLGDFIKVKKRK	not soluble
MQCFNTIFRLFTDMDEDNEIGLPQKGINQIIKEVVPEMRIANESRDMINACCVEFVKHIAREAQRIASQDQRKTIYHEHVQKALQNLGFTPDYLEAADSVLDACKVEAEKKLRRKNSRLEKCGIPEEKLYEMQQELIQKARQQEIEQQLAHQQAQAAAVAAANAQMFGGPSEGSLAPTDDDYDN	soluble
MQDAACARRFVEAFGKRAYRRPLTPEEADAYAALFGQGSFREGVEATITHMLVSPNFLYRSELEHHHHHH	not soluble
MQDWWEADNRLADWLSMILIQRTIEKNAKQALANLGPHLDLESLIGMDMATLEEYIYPAGFYKQKSIYIKALIKWFHGHGASLDKFQTYSTEDLRKELLGIKGVGEETADAMLLYIFERNVFIADLEHHHHHH	not soluble
MQEGVKVVVDSRELRSEVVKRLKLLGVKLEVKTLDVGDYIISEDVAIERKSANDLIQSIIDGGLFDQVKRLKEAYSRPIMIVEGSLYGIRNVHPNAIRGAIAAVTVDFGVPIIFSSTPEETAQYIFLIAKREQEEREKPVRIR	soluble
MQEHFHFTTDPAKLQKQYAAIFCFVSAQLSLIQMYLHRRNRHLVKQEDEVVMAVHLLGKLLGFSSERAWHRFVTGNLFTNGSFLERSRYNRRCRALGFAVKWIRHELAKRGQHHAYAVVDSLPLPLCHPARMQRVKRFRGIADMGYCASKKQWYYGFKLHLQVTHQGLAMGYVVTEASCHDVKAAETVMTQIPHPYNFGDKGYISRALREKLYEEHQAAFWTPSRHNQKHGPSKAWEEWIRKKRKVIETVFSILVDQYRITDIRANSIAGFEVALDGILVAYSLVTLGLVER	not soluble
